Measured values published in the supplement of paper PMC10567573.
± gives the standard deviation.

Test: protein stability index of a GFP-peptide fusion (GPS, HEK-293T) (PSI 1-6); higher = more stable
Conditions: c terminus: a fixed tail appended
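Note: 24-mer peptide tiles fused after GFP, lentivirally expressed, FACS-sorted into six equal bins by GFP/DsRed ratio, decoded by Illumina sequencing, PSI is the read-weighted mean bin number.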

Row | Sequence | protein stability index (treatment: DMSO) | protein stability index (treatment: MLN4924 1 uM, 8 h)
1 | MGATRCDFTLSKTNMARIREIMEK [CPXM2] | 2.96 ± 0.088 | 3.3 ± 0.31
2 | MKQRDNCKIRIQRQLEIMGKEVSG [STX11] | 3.27 ± 0.18 | 3.39 ± 0.33
3 | MLDFLSERPWIKRMIFKLFSQETV [APMAP] | 1.98 ± 0.3 | 1.82 ± 0.26
4 | MNSLVSWQLLLFLCATHFGEPLEK [KISS1] | 3.18 ± 0.67 | 3.07 ± 0.51
5 | MPVICGPEENYPSLQMSSAEMPHT [NANOGP8] | 4.47 ± 0.32 | 4.39 ± 0.24
6 | MQKEDNQVDVRFFGHHHQRAWIPS [ZMYND11] | 3.05 ± 0.12 | 3.18 ± 0.32
7 | MRDQYMRAGEGFIICYSITDRRSF [RIT1] | 2.37 ± 0.82 | 2.11 ± 0.38
8 | MREYKLVVLGSGGVGKSALTVQFV [RAP1B] | 2.51 ± 0.53 | 2.8 ± 0.75
9 | MSDTAVADTRRLNSKPQDLTDAYG [SNX12] | 4.96 ± 0.24 | 5.06 ± 0.14
10 | MSREPTPPLPGDMSTGPIAESWCY [SPOPL] | 3.29 ± 0.32 | 3.37 ± 0.47
11 | MSSEVSARRDAKKLVRSPSGLRMV [ZFYVE21] | 3.67 ± 0.091 | 3.58 ± 0.28
12 | MSVSEIFVELQGFLAAEQDIREEI [TSN] | 2.39 ± 0.42 | 2.72 ± 0.26
13 | MTTESGSDSESKPDQEAEPQEAAG [EPB41L3] | 5.62 ± 0.33 | 5.56 ± 0.45
14 | MVESRYALLIVDSATALYRTDYSG [RAD51] | 3 ± 0.79 | 2.86 ± 0.71
15 | MVPGTRHSAVLRDLRSGTLYSLTL [TNXB] | 2.91 ± 0.58 | 2.03 ± 0.52
16 | MVPVENTEGPSLLNQKGTAVETEG [SLC2A12] | 5.62 ± 0.19 | 5.11 ± 0.3
17 | NAREESLVEELSPASEKKPVPPSE [BCL2L13] | 5.33 ± 0.27 | 5.47 ± 0.14
18 | NARLQAMWGQSLLPPVSTSFTTGG [TNXB] | 2.51 ± 0.29 | 2.89 ± 0.33
19 | NCQSVAQMNLLQKYSLLKLTALLE [DLC1] | 2.25 ± 0.36 | 2.44 ± 0.11
20 | NCSGPAPAAKPDPDGGRADEWACE [P3H4] | 5.36 ± 0.17 | 5.44 ± 0.16
21 | NDFCSFYNILKTCRGHTLERSVFS [CARM1] | 2.78 ± 0.6 | 2.4 ± 0.3
22 | NDNSSDLLYDDLYDDDIDDEDEEE [UBE2R2] | 5.61 ± 0.41 | 5.63 ± 0.18
23 | NEKETMQSLNDRLASYLDRVRSLE [KRT18] | 3.61 ± 0.23 | 3.54 ± 0.28

Row | Sequence | protein stability index (treatment: DMSO) | protein stability index (treatment: MLN4924 1 uM, 8 h)
24 | NFCKEQAARISNKGKFSTDTKGKP [ZC2HC1A] | 3.78 ± 0.2 | 4.27 ± 0.31
25 | NFGFDLLVTYTNRYIIFKRNTLNQ [GMCL1] | 2.1 ± 0.15 | 2.47 ± 0.56
26 | NFQQPGFTSGTGHFTAMVWKNTKK [GLIPR2] | 3.74 ± 0.32 | 3.95 ± 0.067
27 | NGIGAVLDFTHPKARDWFQGHLRR [MYORG] | 2.75 ± 0.34 | 2.64 ± 0.27
28 | NHLNPEVKKSCWTEEEDRIICEAH [MYBL2] | 4.72 ± 0.1 | 4.81 ± 0.2
29 | NIRPSSSGGYWVGMSTIRPNPGFS [APMAP] | 2.61 ± 1 | 2.65 ± 0.37
30 | NKPREHIIDCGDIVWSLAFGSSVP [WSB1] | 2.17 ± 0.38 | 2.07 ± 0.2
31 | NLAFGRRCEELEDARYKLHHHLHK [TEKT4] | 3.2 ± 0.22 | 3.2 ± 0.16
32 | NLFEGMIWFIVPISCVICNDIMAY [CDS2] | 3.44 ± 0.44 | 3.26 ± 0.74
33 | NLPKFCHECGTKYPVEWAKFCCEC [ZC2HC1A] | 5.275 ± 0.001 | 5.557 ± 0.049
34 | NLVSVGYQAGKPDALTKLEQGEPL [ZNF649] | 4.39 ± 0.27 | 4.17 ± 0.4
35 | NQEILLPGGITSHQLLGLFPSTSY [TNXB] | 2.58 ± 0.092 | 2.53 ± 0.27
36 | NRQSSDKQNGRVAKVKGHRSQKHK [C18orf25] | 4.67 ± 0.18 | 4.55 ± 0.17
37 | NSKKEEPQELLQSQDFVGEKLGSG [ATE1] | 5.51 ± 0.11 | 5.42 ± 0.23
38 | NSLEMTPAVRQRVIEEAKTAFLLN [HMOX1] | 3.67 ± 0.2 | 3.63 ± 0.31
39 | NSSGDIGKKEIKPFKRFLRKKSKP [SMOC2] | 4.15 ± 0.4 | 4.19 ± 0.68
40 | NTHVSQVFNLFRTMGLRHLPVVNA [CLCN6] | 2.57 ± 0.39 | 2.12 ± 0.15
41 | NVTELLRDVAAWGRARATGGDLEE [DNAAF3] | 3.63 ± 0.15 | 3.75 ± 0.31
42 | NWLIKYDCPMDSSSSRDTDWVVVK [PI4K2A] | 2.83 ± 0.77 | 3.1 ± 0.17
43 | NWPKNSNGVTQKASAPTYPSLYSS [NANOGP8] | 3.53 ± 0.21 | 3.65 ± 0.25
44 | PADSAQLLSLNSLLPESGIVADIE [TFE3] | 4.93 ± 0.19 | 5.1 ± 0.19
45 | PAQVHSSLSAGEKPGFLAPRDLPK [RASAL3] | 4.63 ± 0.34 | 4.77 ± 0.41
